Data as given in publication PMC11418285.

Legend:
[1] = target: FcγRIIIa (CD16a) 158F allele (human) (UniProt P08637)
FcγRI (CD64) (human) = FcγRI (CD64) (human) (UniProt P12314)
Chain of UniProt P12314 (P12314 16-374): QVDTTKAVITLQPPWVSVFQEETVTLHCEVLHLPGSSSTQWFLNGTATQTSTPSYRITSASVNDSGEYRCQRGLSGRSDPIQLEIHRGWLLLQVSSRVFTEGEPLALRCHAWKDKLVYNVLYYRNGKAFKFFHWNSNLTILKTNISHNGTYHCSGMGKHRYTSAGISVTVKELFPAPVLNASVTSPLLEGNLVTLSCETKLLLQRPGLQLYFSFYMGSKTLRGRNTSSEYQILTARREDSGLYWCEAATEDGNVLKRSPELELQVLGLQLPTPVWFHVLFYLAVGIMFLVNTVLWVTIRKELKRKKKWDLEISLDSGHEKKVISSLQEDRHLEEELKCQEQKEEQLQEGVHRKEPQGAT

Chain of UniProt P08637 (P08637 17-254): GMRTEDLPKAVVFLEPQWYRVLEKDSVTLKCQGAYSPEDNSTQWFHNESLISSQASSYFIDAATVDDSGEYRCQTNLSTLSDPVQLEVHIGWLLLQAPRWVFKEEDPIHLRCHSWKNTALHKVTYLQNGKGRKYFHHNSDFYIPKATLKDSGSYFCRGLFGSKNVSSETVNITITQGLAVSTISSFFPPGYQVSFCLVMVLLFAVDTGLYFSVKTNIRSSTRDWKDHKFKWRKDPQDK

Row | ADCC activity, Fc effector cell reporter bioassay, relative to wild-type IgG1 [1] [fold] | ADCP activity, Fc effector cell reporter bioassay, relative to wild-type IgG1 (FcγRI (CD64) (human)) [fold] | Substance
1 | 201 | – | anti-CD20 antibody with rituximab V regions, afucosylated wild-type human IgG1
2 | – | 1.87 | anti-CD20 antibody with rituximab V regions, human IgG1 S239D A330L I332E
